Several values for one entry are separate records, joined by “and”; a condition that tells them apart may be missing. Equal entries are not always repeated.
What was measured:
[1] = biological target: T1, G9a and GLP (Homo sapiens, UniProt Q96KQ7+Q9H9B1); assay: Triple SILAC pull-down after UNC0638 treatment of 293T cells, DMSO/UNC0638 ratio of protein captured by 3×MBT; format: cell-based; details: for Relative to UNC0638 UNC Heavy: UNC0638 in heavy SILAC media; for Relative to UNC0638 UNC Light: UNC0638 in light SILAC media; for Relative to UNC0638 Average: average of UNC Light and UNC Heavy experiments;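 as to all read-outs here: mass spectrometry (Q-Exactive) SILAC quantitation, DMSO/UNC0638 ratio computed after subtracting 3×MBTD355N mutant pull-down background, only proteins with at least twofold 3×MBT over mutant signal considered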
T1 construct: endogenous in cells; host or cells: HEK 293T
T1 sequence (Q96KQ7 2-1210 limits assumed): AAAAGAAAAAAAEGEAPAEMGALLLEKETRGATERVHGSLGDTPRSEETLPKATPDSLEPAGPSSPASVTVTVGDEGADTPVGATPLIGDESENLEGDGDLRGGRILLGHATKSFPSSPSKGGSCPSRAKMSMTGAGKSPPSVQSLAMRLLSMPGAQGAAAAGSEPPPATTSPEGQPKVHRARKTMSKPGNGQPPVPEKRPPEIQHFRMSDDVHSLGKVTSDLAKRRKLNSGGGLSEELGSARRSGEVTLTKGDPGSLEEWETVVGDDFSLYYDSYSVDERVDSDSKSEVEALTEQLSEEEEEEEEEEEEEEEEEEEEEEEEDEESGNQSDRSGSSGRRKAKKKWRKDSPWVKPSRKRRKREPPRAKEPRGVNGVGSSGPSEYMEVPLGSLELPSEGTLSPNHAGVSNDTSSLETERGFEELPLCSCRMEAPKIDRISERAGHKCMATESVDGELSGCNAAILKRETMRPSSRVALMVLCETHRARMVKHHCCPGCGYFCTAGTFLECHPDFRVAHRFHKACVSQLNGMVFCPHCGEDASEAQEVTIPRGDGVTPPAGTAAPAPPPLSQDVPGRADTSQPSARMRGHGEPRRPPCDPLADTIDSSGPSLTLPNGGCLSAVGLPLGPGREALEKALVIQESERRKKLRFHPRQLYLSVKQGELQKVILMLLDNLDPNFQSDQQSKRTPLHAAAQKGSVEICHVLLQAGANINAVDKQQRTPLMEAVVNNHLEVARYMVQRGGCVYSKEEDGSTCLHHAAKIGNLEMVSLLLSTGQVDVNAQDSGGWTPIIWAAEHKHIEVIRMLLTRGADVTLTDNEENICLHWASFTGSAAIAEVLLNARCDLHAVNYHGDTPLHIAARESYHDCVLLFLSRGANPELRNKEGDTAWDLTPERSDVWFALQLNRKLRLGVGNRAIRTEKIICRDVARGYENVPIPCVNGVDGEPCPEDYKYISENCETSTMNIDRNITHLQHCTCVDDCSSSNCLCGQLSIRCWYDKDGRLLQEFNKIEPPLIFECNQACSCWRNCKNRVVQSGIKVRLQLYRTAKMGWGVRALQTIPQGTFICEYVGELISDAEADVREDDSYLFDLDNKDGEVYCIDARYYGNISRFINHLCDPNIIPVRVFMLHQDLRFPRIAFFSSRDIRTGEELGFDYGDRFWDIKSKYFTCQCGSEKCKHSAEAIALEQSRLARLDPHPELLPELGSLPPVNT
T1 sequence (Q9H9B1 2-1298 limits assumed): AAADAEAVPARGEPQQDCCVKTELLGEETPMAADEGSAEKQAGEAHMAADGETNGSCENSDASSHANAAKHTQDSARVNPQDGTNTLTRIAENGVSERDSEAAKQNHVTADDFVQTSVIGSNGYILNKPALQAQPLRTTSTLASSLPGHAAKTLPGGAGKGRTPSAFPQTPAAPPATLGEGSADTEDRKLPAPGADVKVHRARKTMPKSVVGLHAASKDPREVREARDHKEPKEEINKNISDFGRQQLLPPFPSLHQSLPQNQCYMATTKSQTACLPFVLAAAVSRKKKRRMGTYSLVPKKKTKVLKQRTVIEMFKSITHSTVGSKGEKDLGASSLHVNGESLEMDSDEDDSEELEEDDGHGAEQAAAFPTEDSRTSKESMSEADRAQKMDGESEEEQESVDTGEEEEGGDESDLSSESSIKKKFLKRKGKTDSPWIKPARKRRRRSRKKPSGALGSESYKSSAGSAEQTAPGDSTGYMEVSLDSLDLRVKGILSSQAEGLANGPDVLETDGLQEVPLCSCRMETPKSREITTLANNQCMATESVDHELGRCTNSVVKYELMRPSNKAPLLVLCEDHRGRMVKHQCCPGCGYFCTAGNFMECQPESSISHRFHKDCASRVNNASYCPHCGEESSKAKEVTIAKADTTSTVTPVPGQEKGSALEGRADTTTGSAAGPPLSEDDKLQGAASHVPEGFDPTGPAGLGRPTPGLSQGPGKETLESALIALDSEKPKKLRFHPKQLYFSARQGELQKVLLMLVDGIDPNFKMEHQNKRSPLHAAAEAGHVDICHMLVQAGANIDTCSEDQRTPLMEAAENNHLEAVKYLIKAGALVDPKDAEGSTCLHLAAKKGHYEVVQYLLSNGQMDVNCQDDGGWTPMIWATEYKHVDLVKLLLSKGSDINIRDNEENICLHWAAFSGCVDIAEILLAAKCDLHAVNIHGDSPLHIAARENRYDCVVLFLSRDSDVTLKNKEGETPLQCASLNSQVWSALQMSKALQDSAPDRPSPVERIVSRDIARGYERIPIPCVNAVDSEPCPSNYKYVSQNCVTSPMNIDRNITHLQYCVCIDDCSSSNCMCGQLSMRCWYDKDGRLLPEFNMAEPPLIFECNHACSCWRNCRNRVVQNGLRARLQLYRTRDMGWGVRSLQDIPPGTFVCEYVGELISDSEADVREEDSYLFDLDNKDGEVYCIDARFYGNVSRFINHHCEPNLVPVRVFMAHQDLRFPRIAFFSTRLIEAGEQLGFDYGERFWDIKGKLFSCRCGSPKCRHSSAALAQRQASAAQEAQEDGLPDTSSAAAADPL

[2] = tested on: 3×MBT domain of L3MBTL1; assay: Triple SILAC pull-down, 3xMBT/3xMBTD355N ratio (cytoplasmic, nuclear and chromatin fractions of 293T cells); format: binding, human; details: for 3xMBT/D355N UNC Heavy: experiment with UNC0638 in heavy SILAC media; for 3xMBT/D355N UNC Light: experiment with UNC0638 in light SILAC media;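 as to all read-outs here: proteins quantified with MaxQuant, requiring at least two unique peptides and quantification in both label directions, normalized to the mean of proteins from a digested loading control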
[3] = SILAC ratio DMSO/UNC0638 of protein pulled down with 3xMBT
[4] = SILAC ratio, pull-down 3xMBT vs 3xMBTD355N
[5] = SILAC ratio DMSO relative to UNC0638, pull-down with 3xMBT, all values in log base 2
[6] = SILAC ratio 3xMBT vs 3xMBTD355N pull-down, 293T cells, all values in log base 2

Substance | Relative to UNC0638 UNC Heavy [1, 3] | Relative to UNC0638 UNC Light [1, 3] [log base 2] | Relative to UNC0638 Average [1] | 3xMBT/D355N UNC Heavy [2, 4] | 3xMBT/D355N UNC Light [2, 4] | Relative to UNC0638 UNC Heavy [1, 5] [log base 2] | Relative to UNC0638 UNC Light [1, 5] [log base 2] | Relative to UNC0638 Average ([1]; all values in log base 2) [log base 2] | 3xMBT/D355N UNC Heavy [2, 6] [log base 2] | 3xMBT/D355N UNC Light [2, 6] [log base 2]
HNRNPK | 0.17 log base 2 and 0.13 log base 2 | 0.10 | 0.13 log base 2 and 0.11 log base 2 | 3.13 log base 2 and 2.55 log base 2 | 3.64 log base 2 and 3.36 log base 2 | – | – | – | – | –
HNRNPU | 0.22 log base 2 | 0.28 | 0.25 log base 2 | 2.16 log base 2 | 2.39 log base 2 | – | – | – | – | –
HSPA5 | 0.35 log base 2 | 0.05 | 0.20 log base 2 | 0.70 log base 2 | 2.32 log base 2 | – | – | – | – | –
HSPA8 | 0.28 log base 2 | 0.06 | 0.17 log base 2 | 2.05 log base 2 | 1.48 log base 2 | – | – | – | – | –
ILF2 | 0.15 log base 2 | 0.22 | 0.18 log base 2 | 3.72 log base 2 | 3.45 log base 2 | – | – | – | – | –
KHDRBS1 | 0.54 log base 2 | 0.19 | 0.37 log base 2 | 2.03 log base 2 | 2.82 log base 2 | – | – | – | – | –
LANCL1 | 0.14 log base 2 | 0.23 | 0.18 log base 2 | 1.33 log base 2 | 1.63 log base 2 | – | – | – | – | –
MAP4K5 | – | – | – | – | – | 0.63 | −0.72 | −0.04 | 1.69 | 0.87
MCM6 | 0.10 log base 2 | 0.26 | 0.18 log base 2 | 2.48 log base 2 | 2.53 log base 2 | – | – | – | – | –
MCTS1 | 0.04 log base 2 | 0.20 | 0.12 log base 2 | 2.76 log base 2 | 2.56 log base 2 | – | – | – | – | –
MDC1 | 0.36 log base 2 | 0.11 | 0.24 log base 2 | 2.31 log base 2 | 2.83 log base 2 | – | – | – | – | –

From patent US20140274782A1, “AFFINITY REAGENTS AND METHODS FOR DETECTION, PURIFICATION, AND PROTEOMIC ANALYSIS OF METHYLATED PROTEINS” (The Board of Trustees of the Leland Stanford Junior …, priority 2013, published 2014)
